Data as given in patent US20170198014A1, “POLYPEPTIDES AND THEIR USE FOR TREATING INFLUENZA” ([…] ITS CENTER FOR COMMERCIALIZATION, priority 2014, published 2017).

Columns and labels:
[1] = molecular target: H1 (A/Solomonislands/3/2006) (Influenza A virus, UniProt A7UPX0); conditions: read-out: affinity constant via yeast surface display
[2] = molecular target: H1 (A/NewCaledonia/20/1999) (Influenza A virus, UniProt Q6WG00); conditions: read-out: affinity constant via yeast surface display
H2 (A/Adachi/2/1957) = H2 (A/Adachi/2/1957) (Influenza A virus, UniProt B5UA22); conditions: read-out: affinity constant via yeast surface display
H3 (A/Hong Kong/1/1968) = H3 (A/Hong Kong/1/1968) (Influenza A virus, UniProt Q91MA7); conditions: read-out: affinity constant via yeast surface display
H3N2 A/Victoria/361/2011 [3] = type: binding, Influenza A
H3N2 A/Victoria/361/2011 [4] = type: binding, Influenza A; remark: listed apart in the source
H1, H2 and H3 = type: binding, Influenza A
[5] = molecular target: HA of H3N2 A/Hong Kong/1/1968 (Influenza A virus, UniProt Q91MA7); conditions: read-out: Kd (binding constant)
[6] = molecular target: H1N1 A/New Caledonia/20/1999 (Influenza A virus, UniProt Q6WG00); conditions: read-out: Kd (binding constant)
H2N2 A/Adachi/2/1957 = H2N2 A/Adachi/2/1957 (Influenza A virus, UniProt B5UA22); conditions: read-out: Kd (binding constant)

Sequence of H1 (A/Solomonislands/3/2006) (A7UPX0 1-565): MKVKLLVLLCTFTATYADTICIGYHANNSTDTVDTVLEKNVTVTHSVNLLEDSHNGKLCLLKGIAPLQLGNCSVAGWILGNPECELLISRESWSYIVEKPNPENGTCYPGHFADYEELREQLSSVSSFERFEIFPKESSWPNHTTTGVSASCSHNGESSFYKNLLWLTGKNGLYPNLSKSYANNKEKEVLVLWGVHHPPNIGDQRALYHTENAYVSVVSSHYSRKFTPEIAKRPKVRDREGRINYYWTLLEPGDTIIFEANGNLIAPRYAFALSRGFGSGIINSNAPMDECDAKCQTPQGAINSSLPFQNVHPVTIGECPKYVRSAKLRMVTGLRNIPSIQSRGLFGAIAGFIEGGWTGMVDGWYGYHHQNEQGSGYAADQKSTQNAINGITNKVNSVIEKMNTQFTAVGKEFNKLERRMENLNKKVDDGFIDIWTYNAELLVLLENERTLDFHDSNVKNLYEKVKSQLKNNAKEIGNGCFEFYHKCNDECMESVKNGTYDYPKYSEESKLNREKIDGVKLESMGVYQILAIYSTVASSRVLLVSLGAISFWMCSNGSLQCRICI

Substance “GIVNVPN(P/C)NTTKYQQLARRAIAIYNNNQNAHLEFVENLN(V/C)KEQTGLGIMYYITLAATDDAGKKKIYKAKIAVVESAGWVAVSEFKLV [52Sing2]” has a Kd [1] of 17.2 nM and a Kd [2] of 44.9 nM.
“GIVNVPN(P/C)NTTKYQQLARSAIAIYNNHQNAHLEFVENLN(V/C)KEQVSYGAMYYITLAATDDAGKKKIYKAKVGVVESAGWVGVEEFKLV [52alt1-3]” was tested, and the Kd (H2 (A/Adachi/2/1957)) was 8.5 nM and the Kd (H3 (A/Hong Kong/1/1968)) was 3 nM.
“GIVNVPN(P/C)NTTKYQQLARSAIAVYNYHQNAHLEFVENLN(V/C)KEQIAGKTMYYITLAATDDAGKKKIYKAKVGVVESAGWEGVEEFKLV [52solo2]” showed a Kd [1] of 1.7 nM and a Kd [2] of 9.1 nM.
Substance “GIVNVPN(P/C)NTTKYQQLARSAIAIYNYHQNAHLEFVENLN(V/C)KEQVGGMNMYYITLAATDDAGKKKIYKAKVGVVESAGWKGVEEFKLV [52solo1]” has a Kd [1] of 1.8 nM, a Kd [2] of 20.7 nM and a Kd (H2 (A/Adachi/2/1957)) greater than 350 nM. The Kd (H3 (A/Hong Kong/1/1968)) was 35.7 nM.
With “GIVNVPN(P/C)NTTKYQQLARSAIAIYNYHQNAHLEFVENLN(V/C)KEQLGEGDMYYITLAATDDAGKKKIYKAKIGVVESAGWTGVEEFKLV [52NC-2]” the “binding by yeast display titrations” value (H3N2 A/Victoria/361/2011 [3]) was “could not be detected”, the “Kd (binding constant)” value (H3N2 A/Victoria/361/2011 [4]) was “could not be detected” and the “binding to HA subtypes” value (H1, H2 and H3) was “binding to all three subtypes H1, H2 and H3”. It also gave a Kd [1] of 4.4 nM, a Kd [2] of 27.2 nM and a Kd (H2 (A/Adachi/2/1957)) of 9.6 nM. For the same substance, the Kd (H3 (A/Hong Kong/1/1968)) was 3.9 nM, the Kd [5] was 180 nM and the Kd [6] was 534 nM. For the same substance, the Kd (H2N2 A/Adachi/2/1957) was 289 nM.
